Test system: peptide library, one residue held at a place counted from the Y acceptor
Assay: relative phosphorylation of the sub-library (ratio to the mean residue at this position); higher = residue favoured
Outline: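 In 384-well plates, purified recombinant kinases were incubated for 90 min with 50 μM ATP containing γ-32P-ATP and biotinylated Tyr-centred peptide libraries, each mixture fixing one residue at a single position between −5 and +5. After capture on streptavidin membranes and rinsing, peptides were quantified by phosphorimaging with ImageQuant. Per-position intensities were scaled to the sum of the 18 (Ser/Thr-free library: 16) randomized residues, then multiplied by that number.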

Chain of EPHA6, construct: aa683-end, human (Q9UF33 683-1036, looked up): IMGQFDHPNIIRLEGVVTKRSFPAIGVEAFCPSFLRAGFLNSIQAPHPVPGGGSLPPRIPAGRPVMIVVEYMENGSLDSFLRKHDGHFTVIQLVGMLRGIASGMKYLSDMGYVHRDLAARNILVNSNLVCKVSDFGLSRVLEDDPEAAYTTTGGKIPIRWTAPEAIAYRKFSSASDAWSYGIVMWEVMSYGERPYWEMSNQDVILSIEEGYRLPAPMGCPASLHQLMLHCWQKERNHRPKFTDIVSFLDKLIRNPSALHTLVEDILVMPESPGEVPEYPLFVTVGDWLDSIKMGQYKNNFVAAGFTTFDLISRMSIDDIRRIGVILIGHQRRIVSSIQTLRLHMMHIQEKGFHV
Chain of EPHA3, construct: aa571-end, human (P29320 571-983, looked up): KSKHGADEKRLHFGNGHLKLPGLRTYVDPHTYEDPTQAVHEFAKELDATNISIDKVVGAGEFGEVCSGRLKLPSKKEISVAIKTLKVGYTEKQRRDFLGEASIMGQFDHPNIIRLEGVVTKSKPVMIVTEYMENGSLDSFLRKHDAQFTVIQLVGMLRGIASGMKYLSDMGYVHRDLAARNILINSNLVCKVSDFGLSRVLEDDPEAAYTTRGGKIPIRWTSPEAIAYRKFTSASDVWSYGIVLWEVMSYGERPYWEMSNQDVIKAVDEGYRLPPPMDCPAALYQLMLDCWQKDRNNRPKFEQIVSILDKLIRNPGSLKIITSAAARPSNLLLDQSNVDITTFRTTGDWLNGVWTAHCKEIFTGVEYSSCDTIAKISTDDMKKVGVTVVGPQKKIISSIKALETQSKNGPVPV
Chain of EPHA4, construct: aa610-887, human (P54764 610-887, looked up): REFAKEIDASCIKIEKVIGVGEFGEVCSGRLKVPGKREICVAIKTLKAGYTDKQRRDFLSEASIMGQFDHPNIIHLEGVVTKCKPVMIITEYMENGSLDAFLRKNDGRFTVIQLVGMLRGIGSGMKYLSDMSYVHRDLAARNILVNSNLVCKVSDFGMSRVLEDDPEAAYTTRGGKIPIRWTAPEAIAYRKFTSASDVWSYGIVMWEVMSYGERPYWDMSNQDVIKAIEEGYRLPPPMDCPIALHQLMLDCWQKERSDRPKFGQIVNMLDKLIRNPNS

EPHA3, construct: aa571-end, human (from UniProt P29320)
relative phosphorylation
Details	at +1	at +2	at +3	at +4	at +5	at -1	at -2	at -3	at -4	at -5
A fixed	1.63	0.63	0.711	0.794	1.05	0.536	1.11	0.827	1.03	0.924
D fixed	1.1	1.73	0.574	1.03	1.04	2.68	1.16	1.07	1.06	0.949
E fixed	1.89	1.71	0.544	1.06	0.941	1.19	1.04	1.17	1.05	0.848
F fixed	0.91	1.44	1.4	1.16	1.42	0.997	0.863	1.32	1.3	1.15
G fixed	0.902	0.424	0.526	1.14	0.981	0.389	1.04	0.853	1.01	1.02
H fixed	0.53	0.717	0.69	0.998	0.756	0.534	0.804	0.959	0.859	0.996
I fixed	1.18	1.02	2.34	0.801	0.925	1.83	0.939	1.11	0.974	0.999
K fixed	0.407	0.47	0.403	0.685	0.653	0.382	0.899	0.674	0.918	1.01
L fixed	0.982	0.908	1.62	0.754	1.19	1.75	1.13	0.995	1.34	1.11
M fixed	1.17	0.915	0.989	0.951	0.885	0.827	0.747	0.976	0.837	0.891
N fixed	0.556	1.05	0.514	0.809	0.774	2.18	0.942	1.06	0.817	1.03
P fixed	0.353	0.567	1.42	1.25	1.52	0.44	1.15	1.02	1.06	1.09
Q fixed	1.28	0.789	0.775	0.997	0.8	0.567	1.25	0.894	1.09	1.02
R fixed	0.473	0.601	0.505	0.809	0.648	0.411	0.842	0.806	0.847	0.982
S fixed	0.811	0.685	0.63	0.877	1.06	0.525	1.28	0.902	0.785	0.836
T fixed	0.694	0.742	0.589	0.866	0.841	0.867	0.805	0.885	0.653	0.774
V fixed	1.59	0.905	1.85	0.779	1.04	1.04	1.04	0.994	0.903	0.836
W fixed	1.54	2.7	1.92	2.23	1.47	0.849	0.966	1.48	1.48	1.53
pThr fixed	1.53	2.12	0.736	1.05	0.946	1.88	1.04	0.915	0.851	0.854
pTyr fixed	1.9	7.49	1.44	1.89	1.07	2.88	1.1	1.22	1.13	1.15

EPHA4, construct: aa610-887, human (from UniProt P54764)
relative phosphorylation
Details	at +1	at +2	at +3	at +4	at +5	at -1	at -2	at -3	at -4	at -5
A fixed	1.32	0.737	0.831	0.822	0.978	0.712	1.1	0.763	1.03	1.01
D fixed	1.31	2.05	0.748	1.15	1.18	2.37	1.27	1.2	1.28	1.11
E fixed	3.45	2.28	0.728	1.52	1.29	1.52	1.41	1.34	1.23	1.02
F fixed	0.73	1.14	1.22	0.976	1.25	0.885	0.778	1.24	1.16	1.08
G fixed	0.817	0.564	0.695	0.991	1.1	0.533	0.929	0.804	1.11	1.02
H fixed	0.631	0.779	0.833	1.07	0.933	0.672	0.865	0.873	0.867	0.959
I fixed	0.966	0.952	2.01	0.831	0.904	1.72	0.931	1.12	0.962	0.981
K fixed	0.473	0.527	0.525	0.679	0.67	0.513	0.825	0.594	0.836	0.965
L fixed	0.782	0.829	1.35	0.859	1.01	1.45	1.06	0.976	1.01	1.03
M fixed	1.06	0.86	1.13	0.923	0.938	0.802	0.777	0.851	0.902	1.01
N fixed	0.6	1.09	0.694	0.883	0.901	1.57	1.05	0.901	0.896	1
P fixed	0.509	0.757	1.5	1.25	1.44	0.641	1.42	0.94	1.12	1.05
Q fixed	1.02	0.797	0.708	0.909	0.82	0.638	1.07	0.753	1.04	0.95
R fixed	0.505	0.624	0.588	0.764	0.727	0.555	0.849	0.649	0.834	0.98
S fixed	0.757	0.756	0.685	0.897	0.945	0.689	1.1	0.851	0.919	0.921
T fixed	0.74	0.785	0.733	0.881	0.922	0.935	0.834	1.87	0.815	0.854
V fixed	1.38	0.997	1.59	0.84	0.879	1.08	0.95	0.959	0.861	0.918
W fixed	0.948	1.48	1.45	1.76	1.12	0.718	0.79	1.31	1.13	1.14
pThr fixed	1.73	2.97	0.917	1.23	1.13	2.06	1.1	0.813	0.997	0.912
pTyr fixed	1.87	8.24	1.28	1.75	1.33	2.22	1.09	1.01	1.09	1.07

EPHA6, construct: aa683-end, human (from UniProt Q9UF33)
relative phosphorylation
Details	at +1	at +2	at +3	at +4	at +5	at -1	at -2	at -3	at -4	at -5
A fixed	1.7	0.891	0.971	1.03	0.87	0.838	1.39	0.94	1.57	1.47
D fixed	0.944	1.3	0.585	0.688	0.91	2.67	1.15	1.18	0.754	0.894
E fixed	2.3	1.3	0.541	0.818	0.966	1.73	1.22	1.36	1.03	0.788
F fixed	0.862	1.19	0.94	1.06	1.12	0.701	0.668	1.09	0.859	0.811
G fixed	0.699	0.438	0.61	1.12	0.966	0.427	0.758	0.853	1.27	1.22
H fixed	0.72	1.13	1.03	1.15	1.24	0.733	0.886	1.01	0.973	1.21
I fixed	1.02	0.984	1.93	1	0.811	1.92	0.966	1.5	1.3	0.707
K fixed	0.62	1.03	0.901	1.06	1.04	0.593	1.17	0.842	0.944	1.15
L fixed	0.792	0.964	1.56	0.86	0.92	1.29	1.07	0.873	0.847	0.703
M fixed	1.08	0.917	1.26	0.988	0.955	0.737	0.85	0.943	0.881	0.802
N fixed	0.649	1.04	0.522	0.74	0.947	1.61	0.922	0.818	0.754	0.982
P fixed	0.352	0.594	1.05	1.29	1.03	0.504	1.2	0.876	1.15	1.03
Q fixed	1.31	0.779	0.716	0.882	0.942	0.535	1.02	0.735	0.942	0.998
R fixed	0.916	1.3	1.06	1.27	1.09	0.63	1.3	1.01	1.05	1.45
S fixed	0.808	0.748	0.684	0.848	0.993	0.535	1.21	0.951	0.826	0.949
T fixed	0.678	0.703	0.673	0.794	0.979	0.798	0.84	0.893	0.755	0.91
V fixed	1.54	1.06	1.64	1.08	0.85	1.2	0.781	1.11	1.2	0.954
W fixed	1	1.64	1.32	1.32	1.36	0.528	0.605	1.01	0.894	0.981
pThr fixed	1.37	1.63	0.624	0.561	0.816	2.9	1.03	0.842	0.799	0.686
pTyr fixed	1.48	3.8	0.659	0.576	1.01	2.12	0.946	0.911	0.73	0.677
